Assays:
human α form prion = human α form prion (human, UniProt P04156 90-230)
bovine α form prion = bovine α form prion (bovine, UniProt P10279 102-241)

Row | Binder | Kd (human α form prion) [nM] | Kd (bovine α form prion) [nM]
1 | boPrP-20 (scFv, V domains shown) VH: QVQLVQSGGGLVQPGRSLRLSCAASGFTFDDYAMHWVRQAPGKGLEWVSGISWNSGSIGYADSVKGRFTISRDNAKNSLYLQMNSLRAEDTALYYCAKQGDEAAAGTGFDYWGQGTLVTVSS VL: QSVLTQPPSASAAPGQGVTISCSGSSSNIGTNTVAWYQHLPETAPKLLIYHDSQRPSRVPGRVSGSKSGTSASLAISRLQSDDEADYYCATWDDSLNGWVFGGGTKLTVLG | 36 | –
2 | huPrP-39 (scFv, V domains shown) VH: EVQLVQSGGGLVQPGRSLRLSCAASGFTFGDYAMSWVRQAPGKGPEWIATISSSGDILDYADSVRGRFSISRDNAQRSLHLQMTSLRPDDSAIYYCAREYFFSFDVWGRGTTVTVSS VL: QSVLAQPPSLSVSPGQTARITCSGDGVGSGFVSWYQQRPGQSPSVVIYDDAKRPSGIPERFSGSNSGDTATLTISESRAVDEADYYCQTWDSRSPVFGGGTKVTVLG | 33 | 29
3 | boPrP-15 (scFv) chain 1: QVQLVQSGAEVKKPGASVKVSCKASGYTFTSYGISWVRQAPGQGLEWMGWISAYNGNTNYAQKLQGRVTMTTDTSTSTAYMELRSLRSDDTAVYYCARYGGRIAAASYNWFDPWGQGTLAICPDSACLRVWVSWTVDHLVTVSS chain 2: QSALTQPASVSGSPGQSITISCTGTSSDVGGYNYVSWYQQHPGKAPRLMIYDVSNRPSGVSNRFSGSKSGNTASLTISGLQSEDEADYYCSSYTSSSTLVFGTGTKLTVLG | 7.8 | 4.6
4 | boPrP-2 (scFv, V domains shown) VH: QVQLVQSGGGLVQPGRSLRLSCAASGFTFDDYAMHWVRQAPGKGLEWVSGISWNSGSIGYADSVKGRFTISRDNAKNSLYLQMNSLRAEDTALYYCAKGGGSYYYFDYWGQGTLVTVSS VL: QSVLTQPPSVSGAPGQRVSISCTGNRSNIGAGYDVHWYQQVPGMAPKLLIYGNTKRPSGVPDRFSGSKSGTSASLAITGLQAEDEADYYCQSFDNTLSDSRWVFGGGTKLTVLG | 110 | 410
5 | huPrP-18 (scFv, V domains shown) VH: QVQLVQSGAEVKKPGASVKVSCKASGYTFTSYPIHWVRQAPGQRLEWMGWLNPGTGVTKYSQNFQGRVTLTSDTSANTAYLELSSLRSEDTALYYCTRDPLDSRKNWFDPWGQGTLVTVSS VL: SYVLTQPPSASGTPGQRVTISCSGSNSNIGTNFVYWYQQLPGTAPKLLIYRNNQRPSGVPDRFSGSKSGTSASLAISGLRSEDEADYYCAAWDDSLSGRVFGGGTQLTVLG | 20 | 60
